# T1: C4b binding protein (C4bp) (Homo sapiens, UniProt P04003)
# T1 sequence (P04003 49-597): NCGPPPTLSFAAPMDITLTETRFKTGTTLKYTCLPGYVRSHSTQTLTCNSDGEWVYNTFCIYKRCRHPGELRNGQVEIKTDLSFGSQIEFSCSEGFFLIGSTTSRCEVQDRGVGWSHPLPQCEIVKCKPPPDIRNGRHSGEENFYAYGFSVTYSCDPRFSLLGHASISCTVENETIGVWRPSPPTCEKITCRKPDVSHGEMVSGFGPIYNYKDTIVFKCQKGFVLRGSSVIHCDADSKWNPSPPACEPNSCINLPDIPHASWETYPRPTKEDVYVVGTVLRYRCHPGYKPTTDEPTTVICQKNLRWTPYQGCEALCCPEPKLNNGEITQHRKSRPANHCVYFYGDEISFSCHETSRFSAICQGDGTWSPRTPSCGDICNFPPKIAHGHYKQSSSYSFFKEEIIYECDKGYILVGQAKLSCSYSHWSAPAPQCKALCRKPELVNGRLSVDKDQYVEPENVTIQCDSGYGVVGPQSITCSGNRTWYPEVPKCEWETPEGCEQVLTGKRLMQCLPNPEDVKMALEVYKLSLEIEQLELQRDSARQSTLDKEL
# T2: C4b binding protein (C4bp) (Homo sapiens, UniProt P04003)
# T2 construct: incubated with 10% NHS as source of C4bp; from tissue; host or cells: 10% NHS (serum)
# T2 sequence (P04003 49-597): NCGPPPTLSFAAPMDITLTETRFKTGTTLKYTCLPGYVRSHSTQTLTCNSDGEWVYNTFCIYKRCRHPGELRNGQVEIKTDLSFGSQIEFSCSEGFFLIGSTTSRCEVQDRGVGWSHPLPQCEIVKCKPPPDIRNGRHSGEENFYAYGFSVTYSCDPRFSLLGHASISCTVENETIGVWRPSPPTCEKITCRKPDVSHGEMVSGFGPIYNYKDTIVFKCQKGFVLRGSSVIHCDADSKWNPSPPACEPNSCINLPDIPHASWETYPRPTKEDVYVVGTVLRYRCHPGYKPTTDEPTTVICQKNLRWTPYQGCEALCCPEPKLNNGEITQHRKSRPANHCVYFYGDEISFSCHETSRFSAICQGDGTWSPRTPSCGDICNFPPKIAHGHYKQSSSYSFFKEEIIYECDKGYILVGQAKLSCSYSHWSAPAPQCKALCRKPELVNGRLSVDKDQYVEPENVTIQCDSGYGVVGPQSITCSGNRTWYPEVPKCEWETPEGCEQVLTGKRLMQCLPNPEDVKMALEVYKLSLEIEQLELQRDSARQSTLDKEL
# T2 sequence (P20851 18-252 partner): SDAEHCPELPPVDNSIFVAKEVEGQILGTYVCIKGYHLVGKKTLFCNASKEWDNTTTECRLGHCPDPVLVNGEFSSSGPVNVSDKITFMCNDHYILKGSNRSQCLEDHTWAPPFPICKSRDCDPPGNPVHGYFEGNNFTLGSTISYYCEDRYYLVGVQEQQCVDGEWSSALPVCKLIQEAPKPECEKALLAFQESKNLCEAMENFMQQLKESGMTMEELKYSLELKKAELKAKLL
# Assays:
# complement cascade = experiment: C3 binding assay; settings: FIG. 10
# [1] = system: ME-180 human cervical epithelial cells; experiment: Immunofluorescence microscopy of purified OmpA binding to epithelial cells; assay type: cell-based; settings: 1 mg/ml purified OmpA vs PBS control (FIG. 19)
# Method: Monolayers of the ME-180 cells were treated with PBS (control) or with 1 mg/ml purified OmpA, labeled using polyclonal mouse antiserum against recombinant Ng OmpA-His, followed by anti-mouse Alexa Fluor 488 conjugated antibodies. The results are in FIG. 19.
# [2] = molecular target: T1, C4b binding protein (C4bp); experiment: Dot blot ligand overlay analysis of C4bp binding; settings: C4bp 10 mg/ml; OmpA from 0.1 mg to 4 mg (FIG. 23)
# [3] = molecular target: T2, C4b binding protein (C4bp); experiment: ELISA for the interaction of C4bp with immobilized OmpA; settings: OmpA immobilized from 0.15 mg to 20 mg; 10% NHS as source of C4bp (FIG. 24)
# Method: It is known that some antigens contribute to serum resistance by binding to complement regulatory protein C4b binding protein (C4bp), leading to a decrease in serum killing by complement attack. […] In further experiments, purified OmpA and three negative control proteins were immobilized in the wells of a microtiter plate at different concentrations (from 0.15 mg to 20 mg). The wells were blocked with 5% skimmed milk in PBS and then incubated with 10% NHS as source of C4bp.
Molecule,elicitation of complement-activating antibodies (complement cascade),binding to ME-180 cells [1],C4bp binding (dot blot) [2],bound C4bp (ELISA) [3]
"App: gonococcal App autotransporter protein, SEQ ID 7, related to meningococcal adhesion penetration protein (protein, listed as Neisseria gonorrhoeae) MKTTDKRTTETHRKAPKTGRIRFSPAYLAICLSFGILPQARAGHTYFGINYQYYRDFAENKGKFAVGAKDIEVYNKKGELVGKSMTKAPMIDFSVVSRNGVAALAGDQYIVSVAHNGGYNNVDFGAEGSNPDQHRFSYQIVKRNNYKAGTNGHPYGGDYHMPRLHKFVTDAEPVEMTSYMDGWKYADLNKYPDRVRIGAGRQYWRSDEDEPNNRESSYHIASAYSWLVGGNTFAQNGSGGGTVNLGSEKIKHSPYGFLPTGGSFGDSGSPMFIYDAQKQKWLINGVLQTGNPYIGKSNGFQLVRKDWFYDEIFAGDTHSVFYEPHQNGKYFFNDNNNGAGKIDAKHKHYSLPYRLKTRTVQLFNVSLSETAREPVYHAAGGVNSYRPRLNNGENISFIDKGKGELILTSNINQGAGGLYFEGNFTVSPKNNETWQGAGVHISDGSTVTWKVNGVANDRLSKIGKGTLLVQAKGENQGSVSVGDGKVILDQQADDQGKKQAFSEIGLVSGRGTVQLNADNQFNPDKLYFGFRGGRLDLNGHSLSFHRIQNTDEGAMIVNHNQDKESTVTITGNKDITTTGNNNNLDSKKEIAYNGWFGEKDATKTNGGLNLNYPPEEADRTLLLSGGTNLNGNITQTNGKLFFSGRPTPHAYNHLGSGWSKMEGIPQGEIVWDNDWIDRTFKAENFHIQGGQAVVSRNVAKVEGDWHLSNHAQAVFGVAPHQSHTICTRSDWTGLTSCTEKTITDDKVIASLSKTDVRGNVSLADHAHLNLTGLATFNGNLVQAETRTIRLRANATQNGNLSLVGNAQATFNQATLNGNTSASDNASFNLSNNAVQNGSLTLSDNAKANVSHSALNGNVSLADKAVFHFENSRFTGKISGGKDTALHLKDSEWTLPSGTELGNLNLDNATITLNSAYRHDAAGAQTGSAADAPRRRSRRSLLSVTPPTSAESRFNTLTVNGKLNGQGTFRFMSELFGYRSGKLKLAESSEGTYTLAVNNTGNEPVSLEQLTVVEGKDNTPLSENLNFTLQNEHVDAGAWRYQLIRKDGEFRLHNPVKEQELSDKLGKAGETEAALTAKQAQLAAKQQAEKDNAQSLDALIAAGRNATEKAESVAEPARQAGGENAGIMQAEEEKKRVQADKDTALAKQREAETRPATTAFPRARRARRDLPQPQPQPQPQPQRDLISRYANSGLSEFSATLNSVFAVQDELDRVFAEDRRNAVWTSGIRDTKHYRSQDFRAYRQQTDLRQIGMQKNLGSGRVGILFSHNRTGNTFDDGIGNSARLAHGAVFGQYGIGRFDIGISAGAGFSSGSLSDGIRGKIRRRVLHYGIQARYRAGFGGFGIEPHIGATRYFVQKADYRYENVNIATPGLAFNRYRAGIKADYSFKPAQHISITPYLSLSYTDAASGKVRTRVNTAVLAQDFGKTRSAEWGVNAEIKGFTLSLHAAAAKGPQLEAQHSAGIKLGYRW",able to elicit antibodies which activate the complement cascade,–,–,–
"OmpA: gonococcal OmpA protein, SEQ ID 2; expressed in E. coli with C-terminal His-tag and purified (protein, listed as Neisseria gonorrhoeae, C-terminal His-tag, expressed in E. coli with C-terminal His-tag and purified) MTFFKPSTVVLTASALALSGCVADPVTGQQSPNKSAMYGLGGAAVCGIVGALTHSGKGARNSALACGAIGAGVGGYMDYQEQRLRQNLAGTQIEIQRQGNQIRLVMPESVTFATGSAALGGSAQYALNTAAQTLVQYPDTTLTINGHTDNTGSDAVNNPLSQHRAQAVAYYLQTRGVAASRLTVYGYGSHMPVASNATVEGRAQNRRVEILINPDQRAVNAARHM",–,binds,binding,bound C4bp was detected

# — patent US20080166370A1, “Immunogenic Compositions Comprising Multiple Gonococcal Antigens” (CHIRON SRL, priority 2003, published 2008)
